Experimental findings from PMC7435274 are described below.

For assay [1], the target named is Cys^5-antag: secretin antagonist (c[E^16, K^20], Y^10, I^17, Cha^22, R^25)sec(5–27) with cysteine in position 5. Kind of assay: cysteine trapping with 125I-labeled probe, SDS-PAGE autoradiography densitometry. To be noted: SecR cysteine replacement mutants transiently expressed in COS-1 cells; nonreducing conditions; three experiments; read off a plot.
For assay [2], the target named is Cys^6-antag: secretin antagonist (c[E^16, K^20], Y^10, I^17, Cha^22, R^25)sec(5–27) with cysteine in position 6. Described as above. To be noted: SecR cysteine replacement mutants transiently expressed in COS-1 cells; nonreducing conditions; three experiments; read off a plot.

“wild-type human secretin receptor, on COS-1 cells (from UniProt P47872) A359C”: the response (% of maximal signal within this loop) was determined as 88 in assay [1] and 98 in assay [2].
Taken in the same sequence, the figures for “wild-type human secretin receptor, on COS-1 cells (from UniProt P47872) A365C” were 22 and 37.
For the substance “wild-type human secretin receptor, on COS-1 cells (from UniProt P47872) D364C”, the response (% of maximal signal within this loop) in assay [1] came to 22; in assay [2], 33.
On to “wild-type human secretin receptor, on COS-1 cells (from UniProt P47872) E363C”, for which the figures for the response (% of maximal signal within this loop) in assay [1] and in assay [2] were 22 and 21, respectively.
“wild-type human secretin receptor, on COS-1 cells (from UniProt P47872) E367C”: the figures for the response (% of maximal signal within this loop) in assay [1] and in assay [2] were 4 and 12, respectively.
For “wild-type human secretin receptor, on COS-1 cells (from UniProt P47872) E373C”, the figures for the response (% of maximal signal within this loop) in assay [1] and in assay [2] were 28 and 62, respectively.
Take “wild-type human secretin receptor, on COS-1 cells (from UniProt P47872) F358C”: the response (% of maximal signal within this loop) in assay [1] was determined as 75; in assay [2] it was 93.
Taken in the same sequence, the figures for “wild-type human secretin receptor, on COS-1 cells (from UniProt P47872) F360C” were 63 and 70.
As to “wild-type human secretin receptor, on COS-1 cells (from UniProt P47872) F371C”, the response (% of maximal signal within this loop) was determined as 22 in assay [1] and 40 in assay [2].
Taken in the same sequence, the figures for “wild-type human secretin receptor, on COS-1 cells (from UniProt P47872) F372C” were 28 and 46.
Taken in the same sequence, the figures for “wild-type human secretin receptor, on COS-1 cells (from UniProt P47872) I368C” were 12 and 20.
“wild-type human secretin receptor, on COS-1 cells (from UniProt P47872) L370C”: the values for the response (% of maximal signal within this loop) in assay [1] and in assay [2] were 19 and 43, respectively.
Taken in the same sequence, the figures for “wild-type human secretin receptor, on COS-1 cells (from UniProt P47872) L374C” were 35 and 88.
On to “wild-type human secretin receptor, on COS-1 cells (from UniProt P47872) M366C”, for which the response (% of maximal signal within this loop) in assay [1] was 18; in assay [2], 35.
Take “wild-type human secretin receptor, on COS-1 cells (from UniProt P47872) P362C”: the response (% of maximal signal within this loop) in assay [1] worked out at 30; in assay [2], 40.
For the substance “wild-type human secretin receptor, on COS-1 cells (from UniProt P47872) Q369C”, the results for the response (% of maximal signal within this loop) in assay [1] and in assay [2] were 14 and 41, respectively.
Taken in the same sequence, the figures for “wild-type human secretin receptor, on COS-1 cells (from UniProt P47872) S361C” were 87 and 80.
